Numbering of substitutions follows the chain as printed. Numbered stars: 1 amine (or outer) side, 2 acyl side, 3 side chain; on linkers, the order of the positions; unused ones are H or OH. Bridge positions count the residues as written; N and C are the ends. Side chains are listed from the residue outwards. Ends that are not written are not given here. * marks the point of attachment. C20 diacid = O=C(O)CCCCCCCCCCCCCCCCCCC(=O)*; γGlu = O=C(O)[C@H](CCC(=O)[*:2])N[*:1]; AEEA = NCCOCCOCC(=O)O
T1: human amylin receptor (amylin 3(a) receptor: human calcitonin receptor plus RAMP-3) (human, UniProt P30988 25-474; O60896 24-148, limits assumed)
T1 sequence (looked up) 1: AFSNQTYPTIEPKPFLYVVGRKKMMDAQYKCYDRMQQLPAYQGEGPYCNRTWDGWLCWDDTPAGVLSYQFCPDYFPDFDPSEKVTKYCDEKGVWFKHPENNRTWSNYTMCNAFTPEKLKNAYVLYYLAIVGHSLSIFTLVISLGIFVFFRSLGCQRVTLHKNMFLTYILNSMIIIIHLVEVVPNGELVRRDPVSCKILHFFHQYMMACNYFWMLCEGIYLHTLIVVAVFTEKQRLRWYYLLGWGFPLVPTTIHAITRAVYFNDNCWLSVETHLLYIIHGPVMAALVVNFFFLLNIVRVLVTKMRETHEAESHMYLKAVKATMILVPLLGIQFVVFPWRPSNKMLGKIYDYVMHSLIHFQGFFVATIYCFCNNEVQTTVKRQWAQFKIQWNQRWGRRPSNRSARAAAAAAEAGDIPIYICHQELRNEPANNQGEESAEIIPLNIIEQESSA
T1 sequence (looked up) 2: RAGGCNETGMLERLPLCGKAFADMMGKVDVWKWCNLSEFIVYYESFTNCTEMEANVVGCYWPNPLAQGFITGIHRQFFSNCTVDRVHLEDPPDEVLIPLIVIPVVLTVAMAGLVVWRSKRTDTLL

T2: human calcitonin receptor (human, UniProt P30988 25-474)
T2 sequence (looked up): T1 sequence (looked up) 1

T3: human calcitonin receptor (human, UniProt P30988 25-474)
T3 sequence (looked up): T1 sequence (looked up) 1

B1: N^α1-[2-[2-[2-[[2-[2-[2-[[(4S)-4-carboxy-4-(19-carboxynonadecanoylamino)butanoyl]amino]ethoxy]ethoxy]acetyl]amino]ethoxy]ethoxy]acetyl]-[Arg17,Pro21,Pro27]-h-am … (peptide)
peptide: KCNTATCATQRLANFLRHSSPNFGAIPSSTNVGSNTY
modifications: C20 diacid-gGlu-2xOEG on the alpha amino group of the N-terminal residue; disulfide bridge Cys2-Cys7; C-terminal amide
notes: Synthetic acylated analogue of human amylin; also called compound 24
B2: N^α1-[(4S)-4-carboxy-4-(19-carboxynonadecanoylamino)butanoyl]-[Arg17,Pro21,Pro27,Arg34]-h-amylin (peptide)
peptide: B1 peptide with S34R
modifications: C20 diacid-gGlu on the alpha amino group of the N-terminal residue; disulfide bridge Cys2-Cys7; C-terminal amide
notes: Synthetic acylated analogue of human amylin; also called compound 39
B3: N^α1-[(4S)-4-carboxy-4-(19-carboxynonadecanoylamino)butanoyl]-[Arg17,Pro21,Pro27,Lys35]-h-amylin (peptide)
peptide: B1 peptide with N35K
modifications: C20 diacid-gGlu on the alpha amino group of the N-terminal residue; disulfide bridge Cys2-Cys7; C-terminal amide
notes: Synthetic acylated analogue of human amylin; also called compound 34
B4: N^α1-[2-[2-[2-[[2-[2-[2-[[(4S)-4-carboxy-4-(19-carboxynonadecanoylamino)butanoyl]amino]ethoxy]ethoxy]acetyl]amino]ethoxy]ethoxy]acetyl]-[Glu14,Arg17,Pro21,Pro27 … (peptide)
peptide: B1 peptide with N14E
modifications: C20 diacid-gGlu-2xOEG on the alpha amino group of the N-terminal residue; disulfide bridge Cys2-Cys7; C-terminal amide
notes: Synthetic acylated analogue of human amylin; also called compound 19
B5: N^α1-[(4S)-4-carboxy-4-(19-carboxynonadecanoylamino)butanoyl]-[Arg17,Pro21,Pro27,Pro31,Glu35]-h-amylin (peptide)
peptide: {C20 diacid-γGlu}-KCNTATCATQRLANFLRHSSPNFGAIPSSTPVGSETY-NH2
modifications: disulfide 2-7
SMILES: CC[C@H](C)[C@H](NC(=O)[C@H](C)NC(=O)CNC(=O)[C@H](Cc1ccccc1)NC(=O)[C@H](CC(N)=O)NC(=O)[C@@H]1CCCN1C(=O)[C@H](CO)NC(=O)[C@H](CO)NC(=O)[C@H](Cc1c[nH]cn1)NC(=O)[C@H](CCCNC(=N)N)NC(=O)[C@H](CC(C)C)NC(=O)[C@H](Cc1ccccc1)NC(=O)[C@H](CC(N)=O)NC(=O)[C@H](C)NC(=O)[C@H](CC(C)C)NC(=O)[C@H](CCCNC(=N)N)NC(=O)[C@H](CCC(N)=O)NC(=O)[C@@H](NC(=O)[C@H](C)NC(=O)[C@@H]1CSSC[C@H](NC(=O)[C@H](CCCCN)NC(=O)CC[C@H](NC(=O)CCCCCCCCCCCCCCCCCCC(=O)O)C(=O)O)C(=O)N[C@@H](CC(N)=O)C(=O)N[C@@H]([C@@H](C)O)C(=O)N[C@@H](C)C(=O)N[C@@H]([C@@H](C)O)C(=O)N1)[C@@H](C)O)C(=O)N1CCC[C@H]1C(=O)N[C@@H](CO)C(=O)N[C@@H](CO)C(=O)N[C@H](C(=O)N1CCC[C@H]1C(=O)N[C@H](C(=O)NCC(=O)N[C@@H](CO)C(=O)N[C@@H](CCC(=O)O)C(=O)N[C@H](C(=O)N[C@@H](Cc1ccc(O)cc1)C(N)=O)[C@@H](C)O)C(C)C)[C@@H](C)O
notes: Synthetic acylated analogue of human amylin; also called compound 28
B6: N^α1-[(4S)-4-carboxy-4-(19-carboxynonadecanoylamino)butanoyl]-[Arg17,Pro21,Pro27,His34]-h-amylin (peptide)
peptide: B1 peptide with S34H
modifications: C20 diacid-gGlu on the alpha amino group of the N-terminal residue; disulfide bridge Cys2-Cys7; C-terminal amide
notes: Synthetic acylated analogue of human amylin; also called compound 40
B7: N^α1-[(4S)-4-carboxy-4-(19-carboxynonadecanoylamino)butanoyl]-[Arg17,Pro21,Pro27,Glu35]-h-amylin (peptide)
peptide: B1 peptide with N35E
modifications: C20 diacid-gGlu on the alpha amino group of the N-terminal residue; disulfide bridge Cys2-Cys7; C-terminal amide
notes: Synthetic acylated analogue of human amylin; also called compound 23
B8: N^ε1-[(4S)-4-carboxy-4-[[(4S)-4-carboxy-4-(19-carboxynonadecanoylamino)butanoyl]amino]butanoyl]-[Asp14,Arg17,Pro21,Pro27,Arg35]-h-amylin (peptide)
peptide: K([γGlu-γGlu-C20 diacid])CNTATCATQRLADFLRHSSPNFGAIPSSTNVGSRTY-NH2
modifications: disulfide 2-7; N-terminus assumed
SMILES: CC[C@H](C)[C@H](NC(=O)[C@H](C)NC(=O)CNC(=O)[C@H](Cc1ccccc1)NC(=O)[C@H](CC(N)=O)NC(=O)[C@@H]1CCCN1C(=O)[C@H](CO)NC(=O)[C@H](CO)NC(=O)[C@H](Cc1c[nH]cn1)NC(=O)[C@H](CCCNC(=N)N)NC(=O)[C@H](CC(C)C)NC(=O)[C@H](Cc1ccccc1)NC(=O)[C@H](CC(=O)O)NC(=O)[C@H](C)NC(=O)[C@H](CC(C)C)NC(=O)[C@H](CCCNC(=N)N)NC(=O)[C@H](CCC(N)=O)NC(=O)[C@@H](NC(=O)[C@H](C)NC(=O)[C@@H]1CSSC[C@H](NC(=O)[C@@H](N)CCCCNC(=O)CC[C@H](NC(=O)CC[C@H](NC(=O)CCCCCCCCCCCCCCCCCCC(=O)O)C(=O)O)C(=O)O)C(=O)N[C@@H](CC(N)=O)C(=O)N[C@@H]([C@@H](C)O)C(=O)N[C@@H](C)C(=O)N[C@@H]([C@@H](C)O)C(=O)N1)[C@@H](C)O)C(=O)N1CCC[C@H]1C(=O)N[C@@H](CO)C(=O)N[C@@H](CO)C(=O)N[C@H](C(=O)N[C@@H](CC(N)=O)C(=O)N[C@H](C(=O)NCC(=O)N[C@@H](CO)C(=O)N[C@@H](CCCNC(=N)N)C(=O)N[C@H](C(=O)N[C@@H](Cc1ccc(O)cc1)C(N)=O)[C@@H](C)O)C(C)C)[C@@H](C)O
notes: Synthetic acylated analogue of human amylin; also called compound 52
B9: N^-1-[(4S)-4-carboxy-4-(19-carboxynonadecanoylamino)butanoyl]-Gly[Arg1,Arg17,Pro21,Pro27]-h-amylin (peptide)
peptide: {C20 diacid-γGlu}-GRCNTATCATQRLANFLRHSSPNFGAIPSSTNVGSNTY-NH2
modifications: disulfide 3-8
SMILES: CC[C@H](C)[C@H](NC(=O)[C@H](C)NC(=O)CNC(=O)[C@H](Cc1ccccc1)NC(=O)[C@H](CC(N)=O)NC(=O)[C@@H]1CCCN1C(=O)[C@H](CO)NC(=O)[C@H](CO)NC(=O)[C@H](Cc1c[nH]cn1)NC(=O)[C@H](CCCNC(=N)N)NC(=O)[C@H](CC(C)C)NC(=O)[C@H](Cc1ccccc1)NC(=O)[C@H](CC(N)=O)NC(=O)[C@H](C)NC(=O)[C@H](CC(C)C)NC(=O)[C@H](CCCNC(=N)N)NC(=O)[C@H](CCC(N)=O)NC(=O)[C@@H](NC(=O)[C@H](C)NC(=O)[C@@H]1CSSC[C@H](NC(=O)[C@H](CCCNC(=N)N)NC(=O)CNC(=O)CC[C@H](NC(=O)CCCCCCCCCCCCCCCCCCC(=O)O)C(=O)O)C(=O)N[C@@H](CC(N)=O)C(=O)N[C@@H]([C@@H](C)O)C(=O)N[C@@H](C)C(=O)N[C@@H]([C@@H](C)O)C(=O)N1)[C@@H](C)O)C(=O)N1CCC[C@H]1C(=O)N[C@@H](CO)C(=O)N[C@@H](CO)C(=O)N[C@H](C(=O)N[C@@H](CC(N)=O)C(=O)N[C@H](C(=O)NCC(=O)N[C@@H](CO)C(=O)N[C@@H](CC(N)=O)C(=O)N[C@H](C(=O)N[C@@H](Cc1ccc(O)cc1)C(N)=O)[C@@H](C)O)C(C)C)[C@@H](C)O
notes: h-amylin derivative, N-terminally extended by one residue; disulfide bridge and C-terminal amide as told for human amylin; also called compound 46
B10: N^ε1-[(4S)-4-carboxy-4-(19-carboxynonadecanoylamino)butanoyl]-[Arg17,Pro21,Pro27]-h-amylin (peptide)
peptide: K([γGlu-C20 diacid])CNTATCATQRLANFLRHSSPNFGAIPSSTNVGSNTY-NH2
modifications: disulfide 2-7; N-terminus assumed
SMILES: CC[C@H](C)[C@H](NC(=O)[C@H](C)NC(=O)CNC(=O)[C@H](Cc1ccccc1)NC(=O)[C@H](CC(N)=O)NC(=O)[C@@H]1CCCN1C(=O)[C@H](CO)NC(=O)[C@H](CO)NC(=O)[C@H](Cc1c[nH]cn1)NC(=O)[C@H](CCCNC(=N)N)NC(=O)[C@H](CC(C)C)NC(=O)[C@H](Cc1ccccc1)NC(=O)[C@H](CC(N)=O)NC(=O)[C@H](C)NC(=O)[C@H](CC(C)C)NC(=O)[C@H](CCCNC(=N)N)NC(=O)[C@H](CCC(N)=O)NC(=O)[C@@H](NC(=O)[C@H](C)NC(=O)[C@@H]1CSSC[C@H](NC(=O)[C@@H](N)CCCCNC(=O)CC[C@H](NC(=O)CCCCCCCCCCCCCCCCCCC(=O)O)C(=O)O)C(=O)N[C@@H](CC(N)=O)C(=O)N[C@@H]([C@@H](C)O)C(=O)N[C@@H](C)C(=O)N[C@@H]([C@@H](C)O)C(=O)N1)[C@@H](C)O)C(=O)N1CCC[C@H]1C(=O)N[C@@H](CO)C(=O)N[C@@H](CO)C(=O)N[C@H](C(=O)N[C@@H](CC(N)=O)C(=O)N[C@H](C(=O)NCC(=O)N[C@@H](CO)C(=O)N[C@@H](CC(N)=O)C(=O)N[C@H](C(=O)N[C@@H](Cc1ccc(O)cc1)C(N)=O)[C@@H](C)O)C(C)C)[C@@H](C)O
notes: h-amylin derivative; disulfide bridge and C-terminal amide as told for human amylin; also called compound 48
B11: N^ε-[2-[2-[2-[[(4S)-4-carboxy-4-(19-carboxynonadecanoylamino)butanoyl]amino]ethoxy]ethoxy]acetyl]Lys[Arg1,Arg17,Pro21,Pro27,His35]-h-amylin (peptide)
peptide: K([AEEA-γGlu-C20 diacid])RCNTATCATQRLANFLRHSSPNFGAIPSSTNVGSHTY-NH2
modifications: disulfide 3-8; N-terminus assumed
SMILES: CC[C@H](C)[C@H](NC(=O)[C@H](C)NC(=O)CNC(=O)[C@H](Cc1ccccc1)NC(=O)[C@H](CC(N)=O)NC(=O)[C@@H]1CCCN1C(=O)[C@H](CO)NC(=O)[C@H](CO)NC(=O)[C@H](Cc1c[nH]cn1)NC(=O)[C@H](CCCNC(=N)N)NC(=O)[C@H](CC(C)C)NC(=O)[C@H](Cc1ccccc1)NC(=O)[C@H](CC(N)=O)NC(=O)[C@H](C)NC(=O)[C@H](CC(C)C)NC(=O)[C@H](CCCNC(=N)N)NC(=O)[C@H](CCC(N)=O)NC(=O)[C@@H](NC(=O)[C@H](C)NC(=O)[C@@H]1CSSC[C@H](NC(=O)[C@H](CCCNC(=N)N)NC(=O)[C@@H](N)CCCCNC(=O)COCCOCCNC(=O)CC[C@H](NC(=O)CCCCCCCCCCCCCCCCCCC(=O)O)C(=O)O)C(=O)N[C@@H](CC(N)=O)C(=O)N[C@@H]([C@@H](C)O)C(=O)N[C@@H](C)C(=O)N[C@@H]([C@@H](C)O)C(=O)N1)[C@@H](C)O)C(=O)N1CCC[C@H]1C(=O)N[C@@H](CO)C(=O)N[C@@H](CO)C(=O)N[C@H](C(=O)N[C@@H](CC(N)=O)C(=O)N[C@H](C(=O)NCC(=O)N[C@@H](CO)C(=O)N[C@@H](Cc1c[nH]cn1)C(=O)N[C@H](C(=O)N[C@@H](Cc1ccc(O)cc1)C(N)=O)[C@@H](C)O)C(C)C)[C@@H](C)O
notes: h-amylin derivative, N-terminally extended by one residue; disulfide bridge and C-terminal amide as told for human amylin; also called compound 45

Biological target: T1, human amylin receptor (amylin 3(a) …)
Experiment: cell-based or functional assay

| Binder | Ratio hCT/hAmylin funct. [ratio] | hAmylin-R funct. EC50 [nM] |
| --- | --- | --- |
| B1 | 23.1 | 0.433 |
| B2 | 11.6 | 0.217 |
| B3 | 8.4 | 0.313 |
| B4 | 17.4 | 0.307 |
| B5 | 9.2 | 0.22 |
| B6 | 16.4 | 0.164 |
| B7 | 8.9 | 0.34 |

Biological target: T2, human calcitonin receptor
Experiment: cell-based or functional assay

| Binder | hCTR funct. EC50 [nM] |
| --- | --- |
| B1 | 10 |
| B2 | 2.52 |
| B3 | 2.62 |
| B4 | 5.32 |
| B5 | 2.03 |
| B6 | 2.68 |
| B7 | 3.02 |
| B8 | 14.1 |

Biological target: T3, human calcitonin receptor
Experiment: cell-based or functional assay

| Binder | hCTR funct. EC50 [nM] |
| --- | --- |
| B9 | 0.899 |
| B10 | 1.97 |
| B11 | 10.1 |

From patent US20140087995A1 (published 2014)
